Data reported in publication doi:10.1101/2024.06.20.599911 (bioRxiv, 2024).

Molecular target: T1, GFP-AtCNIH5 (genomic AtCNIH5pro: GFP-AtCNIH5 in cnih5) (Arabidopsis thaliana, UniProt Q9SZ74 1-135)
T1 sequence (looked up): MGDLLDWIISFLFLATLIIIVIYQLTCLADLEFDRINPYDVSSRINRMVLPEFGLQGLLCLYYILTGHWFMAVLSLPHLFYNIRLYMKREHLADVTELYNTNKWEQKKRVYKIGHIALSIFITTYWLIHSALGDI
Assay: co-IP

fold co-immunoprecipitated against the free GFP control: ~40 times
B1: endogenous AtPHF1 (natural protein, UniProt Q8GYE0 1-398, looked up)
chain: MEIEEASRESGHVVCGSWIRRPKKVNWVLIAKASKRRGSSVSSPALLNIFSFDPITASLSSSPLATHTLKDSDGDPVAVSVHPGGDYFVCSTSKGGCKLFELVGGATGITILAKELLPLQNAGLQKCMAFSFDGSKLAVGGVDGCLRIMEWPNLSVILDEPKAHKSIRDMDFSLDSEFLATTSTDGSARIWKAEDGFPLSTLERSGDENIELCRFSKDGTKPFLFCAAQRGDTPMVNVYDISTWKKLGFKKLSRKTASTMAVSLDGKYIALGGKDGDVSVAEVKTMEIYHYSKRLHLGQSIASLEFCPSERVMLTTSSEWGEMVTKLTVPKEWKEWQIYALLFCLFMASVIAAYVFFENSDSFWKLPMGKDQKRPKISLFGGSSSTPSEDHSRWNLDL
